Laboratory results: article PMC3634016 (PLoS ONE, 2013)

Biological target: T1, Wild type rat calmodulin (CaM) (rat, UniProt P0DP29 1-149)
T1 construct: calmodulin, rat, wild type; also called Ca^2+-CaM; calcium-calmodulin; source: expressed from pET9d (Novagen), purified (Phenyl Sepharose, gel filtration)
Test: ITC; peptide titrated into Ca^2+-CaM alone; 25°C; 25 mM Tris-Cl pH 7.5, 75 mM NaCl, 0.5 mM CaCl2; one-set-of-sites model
Conditions: both partners purified

stoichiometry N: 2
B1: mammalian NSCaTE_(Cav1.2) peptide (peptide)
peptide: SWQAAIDAARQAKLMGS
notes: 17 mer with the N-terminal NSCaTE motif of the mammalian L-type calcium channel Cav1.2; also called Cav1.2 NSCaTE; source: synthetic peptide (CanPeptide Inc, >95% purity)
